From patent US20110262430A1 (published 2011) come the findings set out here.

Where a chain is given by its changes, count along the chain named. Numbers in names are those of the source.

To fix the notation:
B1: 6E11 murine monoclonal antibody (antibody, V domains shown)
VH: EVQLQQSGPELVKPGASVRISCKASGYAFTDYYMNWVKQSHGKSLEWVANINPNNGGTNYNQKFKDKATLTVDKSSNTAYMELRSLTSEDTAVYYCARWILYYGRSKWYFDVWGTGTTVTVSS
VL: DVLMTQTPLSLPVSLGDHASISCRSSQSIVQSNGDTYLEWYLQKPGQSPKLLIYRISNRFSGVPDRFSGSGSGTDFTLKISRVEAEDLGVYYCFQGSHVPYTFGGGTKLEIKR
notes: Murine hybridoma antibody; Constant regions are murine IgG1/K or IgG2b/K; also called 6E11 parental; 6E11 mouse parental antibody
B2: 5G4 murine monoclonal antibody (antibody, V domains shown)
VH: EVQLQQSGPELVKPGASVKISCKASGYAFTDYYMNWVKQTHGRSLEWMANINPNTGGTNYNQKFRGKATLTVDKSSTTAYMELRSLTSEDSAVYYCARWILYYGSSRWYFDVWGTGTTVTVSS
VL: B1 VL with H18Q, S28T, Q31H, D35N, R55K, I56V, V90I
notes: Murine hybridoma antibody; murine constant regions not specified
B3: 15D9 murine monoclonal antibody (antibody, V domains shown)
VH: B2 VH with T40S, R43K, R65T, A97T, R107K
VL: B1 VL with H18Q, S28T, Q31H, D35N, I56V, N58Y, V83L, V90I
notes: as for B2
B4: IGF1R-F (anti-IGF-1R H0L0 IgG1, wild type constant region, FUT8 deleted CHO DG44) (antibody)
heavy: not shown
light: DIVMTQSPLSLPVTPGEPASISCRSSQSIVQSNGDTYLEWYLQKPGQSPQLLIYRVSNRFSGVPDRFSGSGSGTDFTLKISRVEAEDVGVYYCFQGSHVPYTFGQGTKLEIKRTVAAPSVFIFPPSDEQLKSGTASVVCLLNNFYPREAKVQWKVDNALQSGNSQESVTEQDSKDSTYSLSSTLTLSKADYEKHKVYACEVTHQGLSSPVTKSFNRGEC
modifications: N-glycan fucose negative (all oligosaccharide species obtained from the sample are fucose negative)
notes: Same chains as IGF1R-E; differs by the host cell line; Campath leader left out
B5: IGF1R-G (anti-IGF-1R H0L0 IgG1 with S239D/I332E, CHO-E1a) (antibody)
heavy: not shown
light: B4 light
notes: Campath leader left out
B6: IGF1R-H (anti-IGF-1R H0L0 IgG1 with S239D/I332E, FUT8 deleted CHO DG44) (antibody)
heavy: not shown
light: B4 light
modifications: N-glycan from FUT8 deleted CHO DG44 host (glycoengineered)
notes: Same chains as IGF1R-G; differs by the host cell line; Campath leader left out
B7: CD20-B (anti-CD20 IgG1, wild type constant region, FUT8 deleted CHO DG44) (antibody)
heavy: not shown
light: QIVLSQSPAILSASPGEKVTMTCRASSSVSYIHWFQQKPGSSPKPWIYATSNLASGVPVRFSGSGSGTSYSLTISRVEAEDAATYYCQQWTSNPPTFGGGTKLEIKRTVAAPSVFIFPPSDEQLKSGTASVVCLLNNFYPREAKVQWKVDNALQSGNSQESVTEQDSKDSTYSLSSTLTLSKADYEKHKVYACEVTHQGLSSPVTKSFNRGEC
modifications: The Fc N-glycan is expected to lack fucose (host: FUT8 deleted CHO DG44). The letters cannot carry this.
B8: CD20-A (anti-CD20 IgG1, wild type constant region, CHO-E1a) (antibody)
heavy: not shown
light: B7 light
B9: H0L0 humanised antibody (wild type human IgG1) (antibody)
heavy: not shown
light: B4 light
B10: H1L0 humanised antibody (wild type human IgG1) (antibody)
heavy: not shown
light: B4 light
B11: H0L0 IgG1m(AA) (antibody)
heavy: not shown
light: B4 light
B12: H1L0 IgG1m(AA) (antibody)
heavy: not shown
light: B4 light
notes: also called H10L0 IgG1m(AA) (as misprinted in several captions)

T2 sequence (chain, as listed by the source mutant limits assumed): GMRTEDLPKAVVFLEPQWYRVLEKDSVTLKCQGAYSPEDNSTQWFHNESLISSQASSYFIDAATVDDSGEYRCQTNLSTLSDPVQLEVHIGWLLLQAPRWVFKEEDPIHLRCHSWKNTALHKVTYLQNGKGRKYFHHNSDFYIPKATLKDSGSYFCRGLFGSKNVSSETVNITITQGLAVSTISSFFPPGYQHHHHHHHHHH

The first assay deals with T1, Cynomolgus macaque monkey IGF-1R-Fc fusion protein (cynomolgus macaque monkey (Macaca …)).
T1 construct: The entry begins with the native signal peptide; also called recombinant Cynomolgus macaque IGF-1R; recombinant cynomolgus macaque IGF-1R
T1 sequence (chain, as listed by the source limits assumed): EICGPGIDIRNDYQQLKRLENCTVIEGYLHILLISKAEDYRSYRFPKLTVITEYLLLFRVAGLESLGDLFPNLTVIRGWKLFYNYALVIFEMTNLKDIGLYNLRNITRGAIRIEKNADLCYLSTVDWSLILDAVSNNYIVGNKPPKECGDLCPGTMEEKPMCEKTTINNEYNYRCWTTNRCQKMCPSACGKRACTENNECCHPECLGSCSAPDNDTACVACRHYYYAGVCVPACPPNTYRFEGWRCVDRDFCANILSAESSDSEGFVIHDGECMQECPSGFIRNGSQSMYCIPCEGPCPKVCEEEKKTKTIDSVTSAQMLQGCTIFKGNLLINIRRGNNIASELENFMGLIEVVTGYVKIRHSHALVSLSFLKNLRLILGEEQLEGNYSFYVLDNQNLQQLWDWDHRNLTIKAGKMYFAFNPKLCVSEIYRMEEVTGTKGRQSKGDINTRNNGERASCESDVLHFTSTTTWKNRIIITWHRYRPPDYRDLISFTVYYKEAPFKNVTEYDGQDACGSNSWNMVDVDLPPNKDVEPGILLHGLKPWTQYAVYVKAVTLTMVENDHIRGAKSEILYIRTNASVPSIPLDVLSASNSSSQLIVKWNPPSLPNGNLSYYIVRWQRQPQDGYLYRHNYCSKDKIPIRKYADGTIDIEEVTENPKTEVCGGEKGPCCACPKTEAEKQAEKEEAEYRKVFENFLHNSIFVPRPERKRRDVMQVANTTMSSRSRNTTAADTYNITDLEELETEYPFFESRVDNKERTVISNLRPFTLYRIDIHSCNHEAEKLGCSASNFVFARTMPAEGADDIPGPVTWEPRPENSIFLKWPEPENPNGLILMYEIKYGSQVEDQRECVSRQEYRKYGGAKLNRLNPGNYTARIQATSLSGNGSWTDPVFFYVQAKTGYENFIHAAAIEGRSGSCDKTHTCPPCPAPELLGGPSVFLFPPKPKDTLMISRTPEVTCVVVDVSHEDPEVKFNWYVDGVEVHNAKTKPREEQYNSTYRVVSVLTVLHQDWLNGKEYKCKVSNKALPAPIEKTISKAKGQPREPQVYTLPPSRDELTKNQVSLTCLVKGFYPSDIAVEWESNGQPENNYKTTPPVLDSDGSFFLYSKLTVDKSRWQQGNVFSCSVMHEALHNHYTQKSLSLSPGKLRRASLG
Nature of the assay: binding ELISA: plate coated with recombinant cynomolgus macaque IGF-1R-Fc, antibody titrated, anti-mouse Ig-HRP detection, OD 450nm. Here is the method:
(§1) 96 well ELISA plates were coated overnight with recombinant Cynomolgus macaque IGF-1R (see Example 4) at 1-2 μg/ml and blocked with 4% BSA/PBS. Purified anti-hIGF-1R antibodies were added and incubated for 1 hour at room temperature. The plates were washed in TBST and HRP conjugated anti mouse Ig (DAKO #P0260) was added to each well at 0.6-1.0 μg/ml. Plates were incubated for 1 hour at room temperature, washed with TBST and developed with OPD substrate (Sigma P9187) or TMB substrate (Sigma T8665). […] For antibodies containing a human IgG1/Cκ constant region, the HRP conjugated anti mouse Ig detection antibody was substituted with a goat anti-human Kappa Light Chains peroxidase conjugate (Sigma, A7164)
As for B1, the EC50 (read off the curve) (as a rule, the concentration that produces a half-maximal response) was approximately 0.04 µg/mL.

Take B2: the “EC50 (read off the curve)” value was approximately 0.1 µg/mL.

As to B3, the binding result is “binds”.

The next assay concerns the target T2, His-tagged FcγRIIIa (F variant) extracellular domain (Heterogeneously glycosylated.).
T2 construct: also called FcγRIIIa (Phe); FcγRIIIa (Phe variant)
Nature of the assay: Biacore T100, His-tagged FcγRIIIa captured on anti-polyhistidine antibody, antibody injected 2-512 nM, 25°C, Bivalent model. On the procedure:
(§2) Qiagen anti-polyhistidine antibody (Cat No. 34670) was immobilised on CM5 biosensor chip using standard NHS/EDC activation, the antibody was diluted to 50 ug/ml in acetate pH4.0 buffer and passed over the activated surface for 20 minutes at 5 ul/minute, the surface was then blocked with ethanolamine. Prior to use the chip was conditioned by performing several regeneration steps using 100 mM phosphoric acid.
(§3) For analysis of the interaction of the FcγRIIIa with various antibody constructs, the poly-histidine tagged receptors were captured to around 20 RU's. […] Regeneration was carried out using 100 mM phosphoric acid following each antibody/buffer injection. The run was carried out using HBS-EP buffer and carried out at 25° C. on a T100 Biacore machine. The data was analysed using the analysis software inherent to the machine using the 1:1 and Bivalent models.
A general note: SPR reads the build-up and loss of mass on a sensor chip optically.
B4: the Kd is 131 nM.

As to B5, the Kd was 88.9 nM.

In turn, B6 displayed a Kd of 51.7 nM.

With B7, the Kd amounted to 75.6 nM.

As for B8, the Kd came out at 78.2 nM.

In the next assay the target is T3, His-tagged FcγRIIIa (V variant) extracellular domain (Heterogeneously glycosylated.).
T3 construct: also called FcγRIIIa (Val); FcγRIIIa (Val variant)
T3 sequence (chain, as listed by the source mutant limits assumed): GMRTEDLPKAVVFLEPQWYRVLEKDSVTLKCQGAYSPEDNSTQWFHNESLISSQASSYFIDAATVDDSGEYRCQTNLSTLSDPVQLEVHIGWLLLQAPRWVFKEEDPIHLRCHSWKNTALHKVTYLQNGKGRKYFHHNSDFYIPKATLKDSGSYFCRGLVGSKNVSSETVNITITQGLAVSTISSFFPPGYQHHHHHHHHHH
Described as above. Here is the method:
as §2, §3
For B4, the Kd came to 146 nM.

Take B5: the Kd stood at 68.8 nM.

As for B6, the Kd was 2.7 nM.

Take B7: the Kd was found to be 74.1 nM.

For B8, the Kd came out at 274 nM.

The target in the next assay is T2, His-tagged FcγRIIIa (F variant) …. Nature of the assay: Biacore T100, His-tagged FcγRIIIa captured on anti-polyhistidine antibody, antibody injected 2-512 nM, 25°C, 1:1 model. On the procedure: as §2, §3
In turn, B4 came in with a Kd of 59.6 nM.

In turn, B5 displayed a Kd of 14.9 nM.

Regarding B6, the Kd was determined as 1.11 nM.

B7 registered a Kd of 20.7 nM.

A further assay has as its target T3, His-tagged FcγRIIIa (V variant) …. The description is as above. Here is the method: as §2, §3
With B4, the Kd came to 12.1 nM.

B5 had a Kd of 7.27 nM.

B6 yielded a Kd of 0.832 nM.

In the case of B7, the Kd worked out at 5.9 nM.

B8 displayed a Kd of 39.5 nM.

The next assay addresses T1, Cynomolgus macaque monkey IGF-1R-Fc …. Nature of the assay: binding ELISA: plate coated with recombinant cynomolgus macaque IGF-1R-Fc, antibody titrated, anti-human kappa light chain-HRP detection, OD 490nm. On the procedure:
as §1
In the case of B9, the binding result was “binds”.

B10: the binding result was “binds”.

B11: the binding result is “binds”.

With B12, the binding result is on record as “binds”.
